In patent publication US20200165325A1:
Read-outs that look alike come from different tables or passages of the source.

Key:
[1] = biological target: Env (gp120) of HIV-1 strain CAP210.2.00.E8 (HIV-1)
[2] = biological target: Env (gp120) of HIV-1 strain TRO.11 (HIV-1)
[3] = biological target: Env (gp120) of HIV-1 strain CAP45.2.00.G3 (HIV-1)
[4] = biological target: Env (gp120) of HIV-1 strain 6535.3 (HIV-1)
[5] = biological target: Env (gp120) of HIV-1 strain THRO4156.18 (HIV-1)
[6] = biological target: Env (gp120) of HIV-1 strain ZM249M.PL1 (HIV-1)
[7] = biological target: Env (gp120) of HIV-1 strain ZM197M.PB7 (HIV-1)
[8] = biological target: Env (gp120) of HIV-1 strain T278-50 (HIV-1)
[9] = biological target: Env (gp120) of HIV-1 strain Du172.17 (HIV-1)
[10] = biological target: Env (gp120) of HIV-1 strain P0402_c2_11 (HIV-1)
[11] = biological target: Env (gp120) of HIV-1 strain 1056_10_TA11_1826 (HIV-1)
[12] = biological target: Env (gp120) of HIV-1 strain QH0692.42 (HIV-1)
[13] = biological target: Env (gp120) of HIV-1 strain 6545.v4.c1 (HIV-1)
[14] = biological target: Env (gp120) of HIV-1 strain 6811.v7.c18 (HIV-1)
[15] = biological target: Env (gp120) of HIV-1 strain TRO.11 (HIV-1); remark: listed apart in the source
[16] = biological target: Env (gp120) of HIV-1 strain T257-31 (HIV-1)
[17] = biological target: Env (gp120) of HIV-1 strain WEAU_d15_410_787 (HIV-1)
[18] = biological target: Env (gp120) of HIV-1 strain Ce2060_G9 (HIV-1)
[19] = biological target: Env (gp120) of HIV-1 strain 3301.v1.c24 (HIV-1)
[20] = biological target: Env (gp120) of HIV-1 strain R1166.c01 (HIV-1)
[21] = biological target: Env (gp120) of HIV-1 strain Ce0393_C3 (HIV-1)
[22] = biological target: Env (gp120) of HIV-1 strain ZM135M.PL10a (HIV-1)
[23] = biological target: Env (gp120) of HIV-1 strain Ce0682_E4 (HIV-1)
[24] = biological target: Env (gp120) of HIV-1 strain CNE30 (HIV-1)
[25] = biological target: Env (gp120) of HIV-1 strain 1006_11_C3_1601 (HIV-1)
[26] = biological target: Env (gp120) of HIV-1 strain C1080.c03 (HIV-1)
[27] = biological target: Env (gp120) of HIV-1 strain WITO4160.33 (HIV-1)
[28] = biological target: Env (gp120) of HIV-1 strain 3415.v1.c1 (HIV-1)
[29] = biological target: Env (gp120) of HIV-1 strain T250-4 (HIV-1)
[30] = biological target: Env (gp120) of HIV-1 strain Q842.d12 (HIV-1)
[31] = biological target: Env (gp120) of HIV-1 strain 6540.v4.c1 (HIV-1)
[32] = biological target: Env (gp120) of HIV-1 strain 211-9 (HIV-1)
[33] = biological target: Env (gp120) of HIV-1 strain 3016.v5.c45 (HIV-1)
[34] = biological target: Env (gp120) of HIV-1 strain AC10.0.29 (HIV-1)
[35] = biological target: Env (gp120) of HIV-1 strain SC422661.8 (HIV-1)

Substance	neutralization IC50 [1] [µg/mL]	neutralization IC50 [2] [µg/mL]	neutralization IC50 [3] [µg/mL]	neutralization IC50 [4] [µg/mL]	neutralization IC50 [5] [µg/mL]	neutralization IC50 [6] [µg/mL]	neutralization IC50 [7] [µg/mL]	neutralization IC50 [8] [µg/mL]	neutralization IC50 [9] [µg/mL]	neutralization IC50 [10] [µg/mL]	neutralization IC50 [11] [µg/mL]	neutralization IC50 [12] [µg/mL]	neutralization IC50 [13] [µg/mL]	neutralization IC50 [14] [µg/mL]	neutralization IC50 [15] [µg/mL]	neutralization IC50 [16] [µg/mL]	neutralization IC50 [17] [µg/mL]	neutralization IC50 [18] [µg/mL]	neutralization IC50 [19] [µg/mL]	neutralization IC50 [20] [µg/mL]	also measured
NIH45-46 IgG (antibody)	> 50	1	> 50	0.23	1.91	0.017	0.15	> 50	> 50	0.073	0.094	0.72	> 50	0.035	1.61	0.49	0.005	0.058	0.009	0.31	neutralization IC50 [21]: 0.334 µg/mL; neutralization IC50 [22]: 0.59 µg/mL; neutralization IC50 [23]: 0.054 µg/mL; neutralization IC50 [24]: 0.309 µg/mL; neutralization IC50 [25]: 0.027 µg/mL; neutralization IC50 [26]: 2.48 µg/mL; neutralization IC50 [27]: 0.06 µg/mL; neutralization IC50 [28]: 0.022 µg/mL; neutralization IC50 [29]: > 50 µg/mL; neutralization IC50 [30]: 0.031 µg/mL; neutralization IC50 [31]: > 50 µg/mL; neutralization IC50 [32]: > 50 µg/mL; neutralization IC50 [33]: > 50 µg/mL
NIH45-46^G54F IgG (antibody)	> 50	0.08	> 50	0.07	0.89	0.004	0.09	> 50	> 50	0.008	0.064	0.56	> 50	0.017	0.11	0.17	< 0.001	0.022	0.001	0.4	neutralization IC50 [34]: 0.3 µg/mL; neutralization IC50 [35]: 0.02 µg/mL; neutralization IC50 [21]: 0.04 µg/mL; neutralization IC50 [22]: 0.13 µg/mL; neutralization IC50 [23]: 0.011 µg/mL; neutralization IC50 [24]: 0.1 µg/mL; neutralization IC50 [25]: 0.003 µg/mL; neutralization IC50 [26]: 0.36 µg/mL; neutralization IC50 [27]: 0.02 µg/mL; neutralization IC50 [28]: < 0.001 µg/mL; neutralization IC50 [29]: > 50 µg/mL; neutralization IC50 [30]: 0.011 µg/mL; neutralization IC50 [31]: > 50 µg/mL; neutralization IC50 [32]: > 50 µg/mL; neutralization IC50 [33]: 5.82 µg/mL
NIH45-46^G54W IgG (antibody)	41	0.09	6.6	0.03	0.54	0.002	0.04	> 50	3.65	0.003	0.024	0.37	18.9	< 0.001	0.04	0.13	< 0.001	0.005	< 0.001	0.13	neutralization IC50 [34]: 0.2 µg/mL; neutralization IC50 [35]: 0.03 µg/mL; neutralization IC50 [21]: 0.013 µg/mL; neutralization IC50 [22]: 0.04 µg/mL; neutralization IC50 [23]: 0.01 µg/mL; neutralization IC50 [24]: 0.052 µg/mL; neutralization IC50 [25]: < 0.001 µg/mL; neutralization IC50 [26]: 0.2 µg/mL; neutralization IC50 [27]: 0.01 µg/mL; neutralization IC50 [28]: < 0.001 µg/mL; neutralization IC50 [29]: 1.33 µg/mL; neutralization IC50 [30]: 0.005 µg/mL; neutralization IC50 [31]: > 50 µg/mL; neutralization IC50 [32]: 16.4 µg/mL; neutralization IC50 [33]: 1.47 µg/mL
NIH45-46^G54Y IgG (antibody)	> 50	0.1	45	0.08	0.66	0.003	0.07	> 50	> 50	0.012	0.044	0.52	> 50	0.011	0.08	0.18	0.002	0.021	0.003	0.24	neutralization IC50 [34]: 0.4 µg/mL; neutralization IC50 [35]: 0.06 µg/mL; neutralization IC50 [21]: 0.036 µg/mL; neutralization IC50 [22]: 0.09 µg/mL; neutralization IC50 [23]: 0.017 µg/mL; neutralization IC50 [24]: 0.099 µg/mL; neutralization IC50 [25]: 0.005 µg/mL; neutralization IC50 [26]: 0.29 µg/mL; neutralization IC50 [27]: 0.03 µg/mL; neutralization IC50 [28]: < 0.001 µg/mL; neutralization IC50 [29]: > 50 µg/mL; neutralization IC50 [30]: 0.015 µg/mL; neutralization IC50 [31]: > 50 µg/mL; neutralization IC50 [32]: > 50 µg/mL; neutralization IC50 [33]: 17.9 µg/mL
